Patent publication US20030068806A1

Key:
[1] = tested on: T1, p70-bac heparanase (human recombinant heparanase secreted by baculovirus infected insect cells)
T1 sequence: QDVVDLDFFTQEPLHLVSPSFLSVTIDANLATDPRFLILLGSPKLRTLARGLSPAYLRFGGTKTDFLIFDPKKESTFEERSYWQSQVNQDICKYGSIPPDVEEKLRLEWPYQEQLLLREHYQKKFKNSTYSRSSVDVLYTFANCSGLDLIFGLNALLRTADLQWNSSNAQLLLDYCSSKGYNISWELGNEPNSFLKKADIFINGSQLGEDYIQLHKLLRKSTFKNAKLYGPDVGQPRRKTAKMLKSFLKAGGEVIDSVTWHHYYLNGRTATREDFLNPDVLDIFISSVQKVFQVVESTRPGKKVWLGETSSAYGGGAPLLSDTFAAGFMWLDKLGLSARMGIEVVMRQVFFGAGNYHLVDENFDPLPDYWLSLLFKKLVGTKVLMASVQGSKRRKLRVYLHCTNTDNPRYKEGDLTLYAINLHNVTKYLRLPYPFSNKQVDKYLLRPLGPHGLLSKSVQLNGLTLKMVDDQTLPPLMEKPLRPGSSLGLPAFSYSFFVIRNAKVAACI

[2] = tested on: T2, p70 heparanase (about 70 kDa form of recombinant human heparanase expressed in mammalian cells)
T2 sequence: T1 sequence

Substance | heparanase activity (DMB assay) and Western blot before and after cathepsin L [1] | heparanase activity (DMB assay) after trypsin digestion of CHO conditioned medium [2] | heparanase activity (DMB assay) after trypsin digestion [1]
cathepsin L (Cat. No. 219412, Calbiochem) | demonstrates proteolytic processing of p70-bac heparanase by cathepsin L | – | –
trypsin (Cat. No. T-8642, Sigma USA) | – | recombinant heparanase processing and activation occurred when mild trypsin digestion was employed on a crude conditioned medium of CHO cells that secrete mammalian p70 heparanase (FIG. 27). Activation was dose dependent. | reaching maximal activation of five-fold already at 15 units trypsin
